Data: patent US20180244725

Test system: T1, R5 peptide
T1 sequence: SSKKSGSYSGSKGSKRRIL

JMJD6 (Auxenochlorella protothecoides) was tested, and the “enzymatic modification of R5 (Hydroxylation)” value was “resulted in no modifications”.

With THAOC_27572 the “enzymatic modification of R5 (Hydroxylation)” value was “resulted in no modifications”.

Tyrosinase from mushrooms (Sigma T3824) was tested, and the “oxidation and polymerization of R5 (absorbance at 350 nm, SDS-PAGE)” value was “A time course was generated showing the production of oxidized R5 (FIGS. 6B-6C) and the subsequent spontaneous formation of R5 polymers”.

Protein Kinase A (PKA) (NEB P6000S) was tested, and the “phosphorylation sites on R5 (LC-MS/MS)” value was “primary phosphorylation at Ser11, with very low levels of phosphorylation at Ser4, Ser7, and Ser1.6”.

With THAOC_37500 the “methylation of R5 (LC-MS time course)” value was “A time course showing the incorporation of zero to 16 methyl groups into R5”.

With THAOC_04424 the “enzymatic modification of R5 (Hydroxylation)” value was “resulted in no modifications”.

For JMJD6 (Nannochloropsos gaditana), the “enzymatic modification of R5 (Hydroxylation)” value was “resulted in no modifications”.

For THAOC_24272, the “methylation of R5 (LC-MS, LC-MS/MS)” value was “the methylation occurs on all four lysine with no discernable preference or pattern”.

With LIPT1 the “enzymatic modification of R5 (Lipidation)” value was “resulted in no modifications”.
